We go through 1 molecule from publication PMC2212017.

This assay deals with T1, TRPV2 (transient receptor potential vanilloid 2), endogenous in RBL2H3 mast cells (rat (endogenous in RBL2H3)), Q9WUD2.
T1 chain: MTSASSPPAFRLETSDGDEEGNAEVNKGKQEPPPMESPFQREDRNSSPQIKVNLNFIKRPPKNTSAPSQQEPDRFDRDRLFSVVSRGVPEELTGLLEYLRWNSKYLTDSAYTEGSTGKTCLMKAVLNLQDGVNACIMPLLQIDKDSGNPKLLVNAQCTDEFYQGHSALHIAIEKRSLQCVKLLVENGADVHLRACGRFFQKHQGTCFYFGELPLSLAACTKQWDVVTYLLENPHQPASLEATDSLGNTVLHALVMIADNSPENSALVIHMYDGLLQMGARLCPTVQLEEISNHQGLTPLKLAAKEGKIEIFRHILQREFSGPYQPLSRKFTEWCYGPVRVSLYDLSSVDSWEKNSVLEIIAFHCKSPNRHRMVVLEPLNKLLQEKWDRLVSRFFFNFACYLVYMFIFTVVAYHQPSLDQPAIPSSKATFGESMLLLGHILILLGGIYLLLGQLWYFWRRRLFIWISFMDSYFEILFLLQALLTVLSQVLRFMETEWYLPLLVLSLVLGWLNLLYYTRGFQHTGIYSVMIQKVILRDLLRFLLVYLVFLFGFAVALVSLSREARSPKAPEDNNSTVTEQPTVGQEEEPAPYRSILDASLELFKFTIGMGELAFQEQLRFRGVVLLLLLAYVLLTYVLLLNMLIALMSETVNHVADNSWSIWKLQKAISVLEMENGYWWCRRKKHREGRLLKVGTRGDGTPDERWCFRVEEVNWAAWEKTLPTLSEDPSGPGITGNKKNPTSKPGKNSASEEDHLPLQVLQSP
Briefly: native gel or EMSA. The conditions noted are these: remark: other sources report otherwise. On the technique in general: Mobility shift assays separate free from complexed probe on a gel.

B1: TRPV2 (transient receptor potential vanilloid 2), endogenous in RBL2H3 mast cells, Q9WUD2 1-761 (natural protein)
chain: MTSASSPPAFRLETSDGDEEGNAEVNKGKQEPPPMESPFQREDRNSSPQIKVNLNFIKRPPKNTSAPSQQEPDRFDRDRLFSVVSRGVPEELTGLLEYLRWNSKYLTDSAYTEGSTGKTCLMKAVLNLQDGVNACIMPLLQIDKDSGNPKLLVNAQCTDEFYQGHSALHIAIEKRSLQCVKLLVENGADVHLRACGRFFQKHQGTCFYFGELPLSLAACTKQWDVVTYLLENPHQPASLEATDSLGNTVLHALVMIADNSPENSALVIHMYDGLLQMGARLCPTVQLEEISNHQGLTPLKLAAKEGKIEIFRHILQREFSGPYQPLSRKFTEWCYGPVRVSLYDLSSVDSWEKNSVLEIIAFHCKSPNRHRMVVLEPLNKLLQEKWDRLVSRFFFNFACYLVYMFIFTVVAYHQPSLDQPAIPSSKATFGESMLLLGHILILLGGIYLLLGQLWYFWRRRLFIWISFMDSYFEILFLLQALLTVLSQVLRFMETEWYLPLLVLSLVLGWLNLLYYTRGFQHTGIYSVMIQKVILRDLLRFLLVYLVFLFGFAVALVSLSREARSPKAPEDNNSTVTEQPTVGQEEEPAPYRSILDASLELFKFTIGMGELAFQEQLRFRGVVLLLLLAYVLLTYVLLLNMLIALMSETVNHVADNSWSIWKLQKAISVLEMENGYWWCRRKKHREGRLLKVGTRGDGTPDERWCFRVEEVNWAAWEKTLPTLSEDPSGPGITGNKKNPTSKPGKNSASEEDHLPLQVLQSP
Take B1: the stoichiometry N came out at 4.

As usually defined, the stoichiometry N is a count of units in the complex or per binding partner.
